Measured values taken from article PMC3401526.

Legend:
[1] = target: Cav3.2 T-type calcium channel α 1H subunit (UniProt O95180)
[2] = target: Cav3.2 T-type calcium channel α 1H subunit (UniProt O95180); remark: listed apart in the source

Chain of UniProt O95180 (O95180 whole entry): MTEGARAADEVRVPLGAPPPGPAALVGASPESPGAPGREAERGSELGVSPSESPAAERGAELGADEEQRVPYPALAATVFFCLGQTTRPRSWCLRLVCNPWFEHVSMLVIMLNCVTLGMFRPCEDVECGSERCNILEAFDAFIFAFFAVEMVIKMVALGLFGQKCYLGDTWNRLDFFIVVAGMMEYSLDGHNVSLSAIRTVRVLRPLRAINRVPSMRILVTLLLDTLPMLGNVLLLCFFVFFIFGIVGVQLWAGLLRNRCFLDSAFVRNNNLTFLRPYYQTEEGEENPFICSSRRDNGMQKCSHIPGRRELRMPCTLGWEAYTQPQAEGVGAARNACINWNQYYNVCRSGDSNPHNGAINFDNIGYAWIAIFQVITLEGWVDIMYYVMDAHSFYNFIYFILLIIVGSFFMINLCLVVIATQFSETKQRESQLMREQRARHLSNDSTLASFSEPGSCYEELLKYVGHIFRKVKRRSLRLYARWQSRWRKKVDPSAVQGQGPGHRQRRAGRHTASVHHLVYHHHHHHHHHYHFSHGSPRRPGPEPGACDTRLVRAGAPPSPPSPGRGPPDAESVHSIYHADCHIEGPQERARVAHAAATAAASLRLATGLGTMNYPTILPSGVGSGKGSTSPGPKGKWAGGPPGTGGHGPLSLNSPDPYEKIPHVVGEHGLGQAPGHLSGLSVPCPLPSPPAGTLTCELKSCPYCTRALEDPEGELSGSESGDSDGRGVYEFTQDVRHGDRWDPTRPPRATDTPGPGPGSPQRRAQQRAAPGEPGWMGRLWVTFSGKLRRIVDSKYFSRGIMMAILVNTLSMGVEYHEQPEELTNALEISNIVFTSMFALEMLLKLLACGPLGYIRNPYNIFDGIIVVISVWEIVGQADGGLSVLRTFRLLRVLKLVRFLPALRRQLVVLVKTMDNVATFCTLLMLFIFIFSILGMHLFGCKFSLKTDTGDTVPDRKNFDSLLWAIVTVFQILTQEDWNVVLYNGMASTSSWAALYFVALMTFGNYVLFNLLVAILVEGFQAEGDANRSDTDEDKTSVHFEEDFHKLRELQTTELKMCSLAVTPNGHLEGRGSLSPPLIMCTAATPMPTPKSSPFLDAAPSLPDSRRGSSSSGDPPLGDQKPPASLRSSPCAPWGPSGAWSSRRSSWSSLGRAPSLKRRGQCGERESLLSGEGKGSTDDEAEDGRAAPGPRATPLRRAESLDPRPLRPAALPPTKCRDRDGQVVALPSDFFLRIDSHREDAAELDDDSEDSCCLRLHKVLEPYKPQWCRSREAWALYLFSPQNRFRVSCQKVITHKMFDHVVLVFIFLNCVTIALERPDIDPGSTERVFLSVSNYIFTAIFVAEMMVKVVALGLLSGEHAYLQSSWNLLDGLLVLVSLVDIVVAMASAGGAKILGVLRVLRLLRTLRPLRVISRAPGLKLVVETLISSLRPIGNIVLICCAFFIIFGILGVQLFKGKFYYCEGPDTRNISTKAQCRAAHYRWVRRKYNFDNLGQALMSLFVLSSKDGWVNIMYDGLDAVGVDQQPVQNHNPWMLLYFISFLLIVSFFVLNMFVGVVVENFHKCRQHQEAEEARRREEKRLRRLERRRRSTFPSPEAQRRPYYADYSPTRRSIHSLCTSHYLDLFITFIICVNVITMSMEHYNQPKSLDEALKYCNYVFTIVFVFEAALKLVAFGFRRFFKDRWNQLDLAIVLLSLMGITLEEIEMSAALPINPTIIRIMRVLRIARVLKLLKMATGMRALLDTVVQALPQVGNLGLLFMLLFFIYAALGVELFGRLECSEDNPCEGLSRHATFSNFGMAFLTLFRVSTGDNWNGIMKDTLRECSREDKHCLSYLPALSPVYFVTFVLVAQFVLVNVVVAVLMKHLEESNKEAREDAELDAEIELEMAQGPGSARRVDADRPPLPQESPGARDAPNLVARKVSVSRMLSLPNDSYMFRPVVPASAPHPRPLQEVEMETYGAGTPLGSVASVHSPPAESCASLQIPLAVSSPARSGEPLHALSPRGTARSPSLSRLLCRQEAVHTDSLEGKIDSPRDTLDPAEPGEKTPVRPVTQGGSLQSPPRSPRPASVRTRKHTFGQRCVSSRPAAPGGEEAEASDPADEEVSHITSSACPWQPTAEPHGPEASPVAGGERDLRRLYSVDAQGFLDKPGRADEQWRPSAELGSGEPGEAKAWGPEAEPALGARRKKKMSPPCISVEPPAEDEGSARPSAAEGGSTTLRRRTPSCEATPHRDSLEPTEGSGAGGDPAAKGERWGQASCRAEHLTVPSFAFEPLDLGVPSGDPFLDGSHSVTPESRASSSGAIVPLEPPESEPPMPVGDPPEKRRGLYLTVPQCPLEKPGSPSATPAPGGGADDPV

ΔKelch, truncated KLHL1 mutant lacking the Kelch domains (domain or fragment)
percentage of increase in calcium influx through Cav3.2 with respect to control, SQAP with shorter depolarization (0.5 ms at +50 mV); not a rescue of the ΔKelch effect [1]: 38 % increase | percentage of increase in calcium influx through Cav3.2 with respect to control, SQAP with shorter hyperpolarization (6 ms at -90 mV); not a rescue of the ΔKelch effect [1]: 31 % increase | percentage of increase in calcium influx through Cav3.2 with respect to control, square action potential (SQAP), first stimulus [2]: 25 % increase
